Experimental data published in publication PMC8906176.

What was measured:
Test in all cases: BLI
[1] = molecular target: C12b-AM1 monobody
[2] = molecular target: C4-AM1 monobody
[3] = molecular target: C6b-AM2 monobody
[4] = molecular target: C12b-AM2 monobody
[5] = molecular target: C4-AM2 monobody

## SARS-CoV-2 S protein receptor-binding domain, wild type (B.1.1) (from UniProt P0DTC2) (domain or fragment)
[1]
  Kd: 1 nM
[2]
  Kd: 0.11 nM
[3]
  Kd: 0.36 nM
[4]
  Kd: < 0.01 nM
[5]
  Kd: < 0.01 nM
